Data taken from patent US7078382B1, “Modulation of eNOS activity and therapeutic uses thereof” (Genentech, Inc., priority 1999, dated 2006).
Where a chain is given by its changes, count along the chain named. In names and notes the source's numbering stands. Entries after “also recorded” stand apart in the source; their conditions may differ.

B1: LK-VRB-25s: VEGF (1-109) variant, D63S/L66R/M18E/Y21L/Q22R/Y25S (protein)
chain: APMAEGGGQNHHEVVKFEDVLRRSSCHPIETLVDIFQEYPDEIEYIFKPSCVPLMRCGGCCNSEGRECVPTEESNITMQIMRIKPHQGQHIGEMSFLQHNKCECRPKKD
B2: LK-VRB-26s: VEGF (1-109) variant, G65M/L66R/M18E/Y21L/Q22R/Y25S (protein)
chain: B1 chain with S63D, G65M
B3: LK-VRB-1s*: VEGF (1-109) variant, M18E/Y21L/Q22R/Y25S (protein)
chain: B1 chain with S63D, R66L
B4: PLGF: recombinant human placental growth factor (protein, UniProt P49763 19-221, looked up)
Placenta growth factor: LPAVPPQQWALSAGNGSSEVEVVPFQEVWGRSYCRALERLVDVVSEYPSEVEHMFSPSCVSLLRCTGCCGDENLHCVPVETANVTMQLLKIRSGDRPSYVELTFSQHVRCECRHSPGRQSPDMPGDFRADAPSFLPPRRSLPMLFRMEWGCALTGSQSAVWPSSPVPEEIPRMHPGRNGKKQQRKPLREKMKPERCGDAVPRR
B5: TGF-beta2: recombinant human transforming growth factor (protein, UniProt P61812 303-414, looked up)
Transforming growth factor …: ALDAAYCFRNVQDNCCLRPLYIDFKRDLGWKWIHEPKGYNANFCAGACPYLWSSDTQHSRVLSLYNTINPEASASPCCVSQDLEPLTILYYIGKTPKIEQLSNMIVKSCKCS
modifications: Transforming growth factor beta-2

Experiments:
KDR receptor = KDR receptor (Homo sapiens, UniProt P35968); assay: KDR receptor binding ELISA (inhibition of biotinylated native VEGF (8-109) binding); conditions: second figure of the cell, ratio to native VEGF (8-109)
Experimental: Receptor binding assays were performed in 96-well immunoplates (Maxisorp, Nunc-Immunoplate, Nalge Nunc International, Rochester, N.Y.). Each well was coated with 100 μl of a solution containing 8 μg/ml of a monoclonal antibody to KDR known as MAKD5 (Genentech, South San Francisco, Calif.) in 50 mM carbonate buffer at pH 9.6 and incubated at 4° C. overnight. The supernatant was discarded, the wells were washed three times in washing buffer (0.05% Tween 20 in PBS), and the plate was blocked (150 μl per well) with block buffer (0.5% BSA, 0.01% thimerosal in PBS) at room temperature for one hour. The supernatant was discarded, and the wells were washed.
(§1) Aliquots of this mixture (100 μl) were added to the precoated microtiter wells and the plate was incubated for 1 hour at room temperature. […] The wells were then incubated with 3, 3′, 5,5′-tetramethyl benzidine (0.2 gram/liter; Kirkegaard & Perry Laboratories, Gaithersburg, Md.) for about 10 minutes at room temperature. Absorbance was read at 450 nm on a Vmax plate reader (Molecular Devices, Menlo Park, Calif.).
(§2) Titration curves were fit with a four-parameter nonlinear regression curve-fitting program (KaleidaGraph, Synergy Software, Reading, Pa.).

Flt-1 receptor [1] = assay: Flt-1 receptor binding ELISA (inhibition of biotinylated native VEGF binding to Flt-IgG); conditions: second figure of the cell, ratio to native VEGF (8-109)
Experimental: Receptor binding assays were performed in 96-well immunoplates (Maxisorp, Nunc-Immunoplate, Nalge Nunc International, Rochester, N.Y.). Each well was coated with 100 μl of a solution containing 2 μg/ml of rabbit F(ab′)2 to human IgG Fc (Jackson ImmunoResearch, West Grove, Pa.) in 50 mM carbonate buffer at pH 9.6 and incubated at 4° C. overnight. The supernatant was then discarded, the wells were washed three times in washing buffer (0.05% Tween 20 in PBS), and the plate was blocked (150 μl per well) with block buffer (0.5% BSA, 0.01% thimerosal in PBS) at room temperature for one hour. The supernatant was discarded, and the wells were washed.
The wells were filled with 100 μl of a solution containing Flt-IgG (a chimeric Flt-human Fc molecule) at 50 ng/ml in assay buffer (0.5% BSA, 0.05% Tween 20 in PBS). The wells were incubated at room temperature for 1 hour and then washed three times in wash buffer (0.05% Tween 20 in PBS).
as §1, with “the” for “this”, “2 hours” for “1 hour”, “g/liter,” for “gram/liter;”
as §2

Flt-1 receptor [2] = target: Flt-1 receptor (Homo sapiens, UniProt P17948); assay: RIA binding assay, FLT-1 receptor; conditions: relative to Native VEGF 165
Excerpt: The results are shown below in Table 6.

eNOS expression = eNOS expression by Western blot in ACE cells; type: cell-based, bovine
Experimental: At the end of incubation, total cell lysates were prepared, and eNOS protein levels were determined by Western blot analysis.
Bovine adrenal cortex capillary endothelial cells (ACE) were prepared and maintained as previously described (Ferrara et.al., 1989 Biochem. Biophys. Res. Commun. 161:851–858). Briefly, cells were plated onto 6-well tissue culture plates (Costar) and grown in low glucose Dulbecco's modified Eagle's medium, supplemented with 2 mM […] (Life Technologies), 10% bovine calf serum (HyClone Lab., Inc.) and 100 μg/ml Penicillin/Streptomycin (Life Technologies). ACE cells were used between passages 4 and 8.
Medium was changed every 24 hours.
The methods for cell lysis and Western blot (WB) have been described in Shen et al., 1998 J. Biol. Chem. 273:29979–29985. A monoclonal anti-eNOS antibody was used at 1:2500 to probe eNOS protein. […] The protein bands were scanned by a densitometer and the relative intensities were quantified using IMAGEQUANT® software (Molecular Dynamics).
Confluent ACE cells were incubated with 500 pM rhVEGF. […] Equal amounts of protein were denatured under reducing conditions and separated in a 10% Novex mini gel and transferred to PVDF membrane. eNOS protein signals were visualized by ECL and quantified using densitometry.

Chain of KDR receptor (P35968 20-327 limits assumed): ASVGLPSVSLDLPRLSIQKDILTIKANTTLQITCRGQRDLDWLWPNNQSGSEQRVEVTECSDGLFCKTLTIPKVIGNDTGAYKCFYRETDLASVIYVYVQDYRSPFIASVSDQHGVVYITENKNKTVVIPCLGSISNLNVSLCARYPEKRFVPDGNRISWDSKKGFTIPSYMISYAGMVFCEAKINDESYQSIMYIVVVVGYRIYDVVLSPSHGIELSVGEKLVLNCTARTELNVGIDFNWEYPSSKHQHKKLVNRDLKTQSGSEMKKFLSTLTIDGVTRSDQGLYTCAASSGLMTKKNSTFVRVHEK
Chain of Flt-1 receptor (P17948 27-327 limits assumed): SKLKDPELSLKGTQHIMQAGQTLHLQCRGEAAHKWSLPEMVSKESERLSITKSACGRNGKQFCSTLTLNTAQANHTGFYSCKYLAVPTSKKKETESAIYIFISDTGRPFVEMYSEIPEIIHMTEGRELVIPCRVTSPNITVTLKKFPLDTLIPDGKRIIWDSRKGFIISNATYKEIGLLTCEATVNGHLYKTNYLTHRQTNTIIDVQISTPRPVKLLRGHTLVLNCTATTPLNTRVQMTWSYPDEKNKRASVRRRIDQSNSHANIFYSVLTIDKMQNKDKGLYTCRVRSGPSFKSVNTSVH
Chain of Flt-1 receptor (Homo sapiens, UniProt P17948) (P17948 27-1338): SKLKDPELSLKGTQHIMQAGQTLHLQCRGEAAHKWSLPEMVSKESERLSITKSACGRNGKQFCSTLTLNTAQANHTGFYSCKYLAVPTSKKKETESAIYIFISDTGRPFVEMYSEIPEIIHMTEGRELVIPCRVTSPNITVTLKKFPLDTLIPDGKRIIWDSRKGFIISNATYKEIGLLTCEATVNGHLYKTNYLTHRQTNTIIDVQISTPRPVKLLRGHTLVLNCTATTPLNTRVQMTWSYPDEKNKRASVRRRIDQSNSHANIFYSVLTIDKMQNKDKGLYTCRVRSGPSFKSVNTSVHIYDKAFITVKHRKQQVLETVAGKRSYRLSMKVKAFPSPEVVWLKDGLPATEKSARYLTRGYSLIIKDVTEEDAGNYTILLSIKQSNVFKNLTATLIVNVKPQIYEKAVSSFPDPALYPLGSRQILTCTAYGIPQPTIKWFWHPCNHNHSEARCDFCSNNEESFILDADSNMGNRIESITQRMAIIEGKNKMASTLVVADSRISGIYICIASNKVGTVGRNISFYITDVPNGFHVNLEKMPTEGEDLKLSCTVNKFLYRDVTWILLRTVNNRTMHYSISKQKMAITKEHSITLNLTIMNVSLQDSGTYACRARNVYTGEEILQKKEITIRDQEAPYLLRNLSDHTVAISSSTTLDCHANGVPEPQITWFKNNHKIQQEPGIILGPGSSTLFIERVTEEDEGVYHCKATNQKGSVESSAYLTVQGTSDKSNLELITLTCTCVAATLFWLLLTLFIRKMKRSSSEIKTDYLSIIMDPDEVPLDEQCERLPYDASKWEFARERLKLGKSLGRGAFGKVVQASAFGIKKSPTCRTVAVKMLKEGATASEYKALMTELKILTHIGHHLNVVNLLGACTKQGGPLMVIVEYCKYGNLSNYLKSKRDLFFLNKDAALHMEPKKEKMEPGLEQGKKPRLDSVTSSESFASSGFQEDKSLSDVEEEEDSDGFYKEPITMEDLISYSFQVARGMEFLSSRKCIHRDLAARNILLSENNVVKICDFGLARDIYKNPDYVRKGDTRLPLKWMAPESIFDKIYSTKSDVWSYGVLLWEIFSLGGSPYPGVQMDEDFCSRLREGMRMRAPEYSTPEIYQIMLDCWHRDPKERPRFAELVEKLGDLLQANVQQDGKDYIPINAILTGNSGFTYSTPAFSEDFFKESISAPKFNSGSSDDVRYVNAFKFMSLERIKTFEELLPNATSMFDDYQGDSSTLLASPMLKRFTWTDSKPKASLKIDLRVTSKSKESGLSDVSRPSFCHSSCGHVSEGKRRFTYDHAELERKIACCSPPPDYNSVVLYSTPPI

| Molecule | Relative Binding Affinity KDR Receptor (KDR receptor) | Relative Binding Affinity FLT-1 Receptor (Flt-1 receptor [1]) | other results |
| --- | --- | --- | --- |
| B1 | 4 nM/4 | />12000 | – |
| B2 | 23 nM/23 | />25000 | – |
| B3 | 1 nM/1 | – | Relative Binding Affinity FLT-1 Receptor (Flt-1 receptor [2]): 14,000 |
| B4 | – | – | eNOS expression with VEGF forms and receptor-selective variants (eNOS expression; equal concentrations, two days): had no effect; also recorded: did not |
| B5 | – | – | eNOS expression with angiogenic factors (eNOS expression; 500 pM, 2 days): reduced endogenous eNOS expression |
